Data taken from the supplement of paper PMC7877785.
± gives the uncertainty stated by the source.

Assay: self-splicing fitness, log relative to wild type (ln ratio); higher = more splicing; Tetrahymena group I intron in knt gene, E. coli kanamycin selection, DiMSum; sequences stand for … in CUCUCU…GGAGGGAAAAGUUAUCAGGCAUGCACCUGGUAGCUAGUCUUUAAACCAAUAGAUUGCAUCGGUUUAAAAGGCAAGACCGUCAAAUUGCGGGAAAGGGGUCAACAGCCGUUCAGUACCAAGUCUCAGGGGAAACUUUGAGAUGGCCUUGCAAAGGGUAUGGUAAUAAGCUGACGGACAUGGUCCUAACCACGCAGCCAAGUCCUAAGUCAACAGAUCUUCUGUUGAUAUGGAUGCAGUUCACAGACUAAAUGUCGGUCGGGGAAGAUGUAUUCUUCUCAUAAGAUAUAGUCGGACCUCUCCUUAAUGGGAGCUAGCGGAUGAAGUGAUGCAACACUGGAGCCGCUGGGAACUAAUUUGUAUGCGAAAGUAUAUUGAUUAGUUUUGGAGUACUCGUGGUCG
How it was run: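 A randomised library covering all eight P1ex-region intron nucleotides was built with the intron in the knt kanamycin-resistance gene on pET-22b(+) and held in E. coli BL21(DE3). Cells were grown overnight at 37°C or 30°C on LB agar, with or without 25 μg/mL kanamycin, plus 100 μg/mL carbenicillin, 50 μM IPTG and 0.2% rhamnose, and pooled colonies were amplicon-sequenced on an Illumina HiSeq 2500. DiMSum fitness is the error-weighted combination of wild-type-normalised replicate fold changes, kanamycin versus none.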

Sequence	self-splicing fitness (ln) (30 °C)	self-splicing fitness (ln) (37 °C)
AGCGAGCAAUAUUACGUAAA	-2.53 ± 0.18	-2.03 ± 0.31
UUCGAGCAAUAUUACGACGU	-3.55 ± 0.24	-1.85 ± 0.14
CAGUAGCAAUAUUACGGCAU	-4.45 ± 0.27	-1.78 ± 0.18
AGACAGCAAUAUUACGGCCU	-1.2 ± 0.085	-0.234 ± 0.09
UUUAAGCAAUAUUACGUGCG	-0.659 ± 0.088	-0.486 ± 0.11
GCGGAGCAAUAUUACGUUAA	-2.66 ± 0.25	-2.32 ± 0.3
AUAAAGCAAUAUUACGUGGG	-2.92 ± 0.095	-3.02 ± 0.15
ACCAAGCAAUAUUACGAGUC	-3.65 ± 0.2	-1.25 ± 0.15
UGAGAGCAAUAUUACGUACU	–	-1.87 ± 0.25
ACGGAGCAAUAUUACGACAG	-2.34 ± 0.26	-2.62 ± 0.34
CGGGAGCAAUAUUACGUUCG	-3.74 ± 0.47	-1.75 ± 0.27
AUGAAGCAAUAUUACGAACA	-0.423 ± 0.1	0.795 ± 0.15
AUGGAGCAAUAUUACGUUGU	-2.69 ± 0.17	-2.48 ± 0.23
CCUAAGCAAUAUUACGGUUC	-3.88 ± 0.23	-2.59 ± 0.22
UCCCAGCAAUAUUACGUGCG	-3.71 ± 0.15	-2.93 ± 0.17
GACGAGCAAUAUUACGCGGG	-3.48 ± 0.47	-2.61 ± 0.36
GUUCAGCAAUAUUACGCAAC	-2.96 ± 0.22	-1.48 ± 0.21
CUAAAGCAAUAUUACGGAAA	-4.24 ± 0.37	-2.44 ± 0.35
UGAGAGCAAUAUUACGUGCA	-1.53 ± 0.087	-0.611 ± 0.1
UCGCAGCAAUAUUACGGCAA	-0.188 ± 0.079	0.0609 ± 0.11
GAGCAGCAAUAUUACGAAUA	-2.87 ± 0.37	-1.8 ± 0.24
AGUAAGCAAUAUUACGUCUC	-3.31 ± 0.25	-2.96 ± 0.47
GCGAAGCAAUAUUACGUGUA	-1.88 ± 0.093	-1.09 ± 0.072
ACUCAGCAAUAUUACGGACC	-0.551 ± 0.13	0.137 ± 0.14
CGUUAGCAAUAUUACGGGCU	-1.6 ± 0.099	-1.46 ± 0.16

Sequence	self-splicing fitness (ln) (30 °C)	self-splicing fitness (ln) (37 °C)
GGGAAGCAAUAUUACGGGUA	-0.928 ± 0.2	-2.25 ± 0.23
UGCAAGCAAUAUUACGGCUA	0.00387 ± 0.089	-0.123 ± 0.1
UUUCAGCAAUAUUACGCUAG	-0.789 ± 0.084	-0.5 ± 0.1
GGGUAGCAAUAUUACGAUAG	-2.32 ± 0.37	–
CACGAGCAAUAUUACGUUUG	-3.57 ± 0.13	-2.17 ± 0.13
UCUUAGCAAUAUUACGAGGC	-3.01 ± 0.46	–
CACGAGCAAUAUUACGGGAA	-2.95 ± 0.2	-3.1 ± 0.29
UACGAGCAAUAUUACGGUUG	-2.72 ± 0.13	-2.11 ± 0.16
CCAGAGCAAUAUUACGCAUG	-2.64 ± 0.16	-1.59 ± 0.16
CGGCAGCAAUAUUACGAGAC	-3.78 ± 0.22	-3.43 ± 0.35
GGUAAGCAAUAUUACGUGUC	-2.08 ± 0.23	-0.504 ± 0.3
UCAAAGCAAUAUUACGACCU	-1.84 ± 0.19	-0.48 ± 0.19
AUGCAGCAAUAUUACGUUGC	-4.01 ± 0.18	-2.25 ± 0.24
CAUCAGCAAUAUUACGACAU	-2.905 ± 0.017	-1.51 ± 0.033
CGGCAGCAAUAUUACGGAGC	-3.37 ± 0.14	-3.3 ± 0.2
AGCCAGCAAUAUUACGAAGG	-3.89 ± 0.41	-2.92 ± 0.31
UUUGAGCAAUAUUACGAAGG	-3.13 ± 0.34	-1.66 ± 0.31
CAGGAGCAAUAUUACGUCCA	-2.02 ± 0.16	-1.08 ± 0.24
UUGCAGCAAUAUUACGCCAA	-1.25 ± 0.19	0.228 ± 0.24
CGCAAGCAAUAUUACGGCGC	-2.37 ± 0.12	-1.73 ± 0.18
CUAAAGCAAUAUUACGAAGU	-4.21 ± 0.26	-2.57 ± 0.28
CUUUAGCAAUAUUACGUAUG	-0.82 ± 0.11	-0.4 ± 0.12
GCUCAGCAAUAUUACGUCGC	-1.95 ± 0.17	-0.137 ± 0.16
GUAUAGCAAUAUUACGGAAC	-3.32 ± 0.15	-1.77 ± 0.13
AUAAAGCAAUAUUACGCAUG	-0.888 ± 0.073	-0.405 ± 0.093

Sequence	self-splicing fitness (ln) (30 °C)	self-splicing fitness (ln) (37 °C)
GUGUAGCAAUAUUACGGUCA	-1.36 ± 0.14	-2.06 ± 0.12
UACGAGCAAUAUUACGCAAA	-2.36 ± 0.28	-1.67 ± 0.47
UCCAAGCAAUAUUACGGAGA	-0.684 ± 0.087	-0.415 ± 0.092
CCACAGCAAUAUUACGUCUC	-3.01 ± 0.17	-2.66 ± 0.16
UUGUAGCAAUAUUACGACGU	-1.48 ± 0.09	-0.671 ± 0.12
AAUGAGCAAUAUUACGCACG	-3.21 ± 0.36	–
UAUAAGCAAUAUUACGGCUC	-1.1 ± 0.17	-0.161 ± 0.2
UCAAAGCAAUAUUACGUAUA	-3.27 ± 0.18	-2.17 ± 0.17
CAUAAGCAAUAUUACGCAGA	-2.5 ± 0.17	-2.51 ± 0.17
UUGUAGCAAUAUUACGAAAC	–	-2.66 ± 0.48
GUUAAGCAAUAUUACGCCUG	-0.512 ± 0.11	-0.224 ± 0.12
ACAAAGCAAUAUUACGUCAC	-4.13 ± 0.18	-2.53 ± 0.16
GCCCAGCAAUAUUACGGUUC	-0.85 ± 0.043	-0.0899 ± 0.059
AGAGAGCAAUAUUACGCCAG	-3.51 ± 0.35	-2.94 ± 0.38
CCGUAGCAAUAUUACGGAGG	-3.6 ± 0.17	-3.34 ± 0.25
CGGCAGCAAUAUUACGAACC	-0.757 ± 0.33	-0.368 ± 0.37
GUCGAGCAAUAUUACGCUGA	–	-2.01 ± 0.43
GCCUAGCAAUAUUACGGAAU	-1.23 ± 0.074	-0.307 ± 0.093
ACGGAGCAAUAUUACGACGU	-2.27 ± 0.17	-1.56 ± 0.23
AUCAAGCAAUAUUACGUUCG	-1.5 ± 0.086	-0.132 ± 0.091
UCUCAGCAAUAUUACGAUGC	-3.28 ± 0.28	-2.55 ± 0.27
GACCAGCAAUAUUACGAAUA	-1.74 ± 0.11	-0.549 ± 0.11
UUCCAGCAAUAUUACGUUCU	–	-3.34 ± 0.31
ACAUAGCAAUAUUACGCACA	-0.98 ± 0.099	-0.0165 ± 0.12
UCCAAGCAAUAUUACGAGCC	-2.51 ± 0.49	-1.88 ± 0.29

Sequence	self-splicing fitness (ln) (30 °C)	self-splicing fitness (ln) (37 °C)
UGCUAGCAAUAUUACGGCCU	0.151 ± 0.14	0.383 ± 0.16
AGGAAGCAAUAUUACGCCGU	-1.28 ± 0.24	-0.629 ± 0.33
CAUAAGCAAUAUUACGAUUU	-2.47 ± 0.13	-2.19 ± 0.16
AGAUAGCAAUAUUACGUCAA	-1.15 ± 0.09	-1.03 ± 0.1
UCGUAGCAAUAUUACGUGGG	-3.54 ± 0.24	-3.92 ± 0.28
GUGUAGCAAUAUUACGGCUU	-0.494 ± 0.078	0.195 ± 0.11
CUUCAGCAAUAUUACGACGA	–	-1.54 ± 0.37
UUCAAGCAAUAUUACGGCCC	-1.49 ± 0.17	-0.618 ± 0.18
CGUUAGCAAUAUUACGAUAU	-3.41 ± 0.14	-2.22 ± 0.14
GAUUAGCAAUAUUACGAGAU	-3.12 ± 0.14	-3.26 ± 0.19
GAUAAGCAAUAUUACGUUUG	-2.07 ± 0.17	-1.92 ± 0.17
AUACAGCAAUAUUACGGUCA	-0.743 ± 0.09	-0.0276 ± 0.099
GAGUAGCAAUAUUACGAUGC	-1.79 ± 0.23	-0.495 ± 0.26
AAGAAGCAAUAUUACGAUCG	-1.23 ± 0.12	-0.674 ± 0.14
AAGCAGCAAUAUUACGCAGG	-2.34 ± 0.14	-1.13 ± 0.11
UCGGAGCAAUAUUACGUACU	–	-2.6 ± 0.34
UAGCAGCAAUAUUACGACUU	-0.541 ± 0.098	0.107 ± 0.11
AUCCAGCAAUAUUACGGUAC	-1.77 ± 0.12	-0.693 ± 0.14
AUGUAGCAAUAUUACGAGCU	-0.582 ± 0.14	-0.987 ± 0.2
GCAUAGCAAUAUUACGAUGG	-1.01 ± 0.09	-0.54 ± 0.11
AUGGAGCAAUAUUACGCCUU	-2.22 ± 0.18	-2.41 ± 0.3
UUGUAGCAAUAUUACGUGAU	-3.14 ± 0.17	-1.01 ± 0.15
GAUGAGCAAUAUUACGAGGG	–	-2.15 ± 0.22
